Reference: US20050227306

What was measured:
[1] = target: His6-tetraCys-X-MBP protease substrate 22-F [MBP: P0AEX9]
[2] = target: His6-tetraCys-X-MBP protease substrate 23-F [MBP: P0AEX9]
[3] = target: His6-tetraCys-X-MBP protease substrate 21-F [MBP: P0AEX9]
[4] = target: His6-tetraCys-X-MBP protease substrate 24-F [MBP: P0AEX9]
[5] = target: At3g03410 fusion protein expressed from pVP14
[6] = target: At3g16990 fusion protein expressed from pVP15
[7] = target: His6-tetraCys-X-MBP protease substrate 25-F [MBP: P0AEX9]
[8] = target: His6-tetraCys-X-MBP protease substrate 26-F [MBP: P0AEX9]

B1: tobacco etch virus (TEV) protease (protein)
chain: GESLFKGPRDYNPISSTICHLTNESDGHTTSLYGIGFGPFIITNKHLFRRNNGTLLVQSLHGVFKVKNTTTLQQHLIDGRDMIIIRMPKDFPPFPQKLKFREPQREERICLVTTNFQTKSMSSMVSDTSCTFPSSDGIFWKHWIQTKDGQCGSPLVSTRDGFIVGIHSASNFTNTNNYFTSVPKNFMELLTNQEAQQWVSGWRLNADSVLWGGHKVFMSKPEEPFQPVKEATQLMNELVYSQ
[1]
  relative rate of reaction (initial proteolysis rate by fluorescence anisotropy, normalised to the cognate substrate) (relative rate): 0
[2]
  relative rate of reaction (initial proteolysis rate by fluorescence anisotropy, normalised to the cognate substrate) (relative rate): -0.02
[3]
  fluorescence anisotropy and SDS-PAGE: underwent a minor amount of proteolysis
  relative rate of reaction (initial proteolysis rate by fluorescence anisotropy, normalised to the cognate substrate) (relative rate): 0.01
[4]
  relative rate of reaction (initial proteolysis rate by fluorescence anisotropy, normalised to the cognate substrate) (relative rate): -0.01
[5]
  fluorescence anisotropy over time: time-dependent decreases in anisotropy
[6]
  fluorescence anisotropy over time: a time-dependent decrease in anisotropy was observed
[7]
  relative rate of reaction (initial proteolysis rate by fluorescence anisotropy, normalised to the cognate substrate) (relative rate): 0
[8]
  relative rate of reaction (initial proteolysis rate by fluorescence anisotropy, normalised to the cognate substrate) (relative rate): 1
  specific reaction rate (slope of initial proteolysis rate versus protease concentration): TEV protease; 17.3±0.7
